From US20220267469A1 (LIPUM, published 2022)

B1: S-SL048-11 hIgG4 S228P (antibody, V domains shown)
VH: QVQLVQSGAEVKKPGASVKVSCKASGYTFTSYNMHWVRQAPGQGLEWMGVIYPGDGATSYAQKFKGRVTMTRDTSTSTVYMELSSLRSEDTAVYYCARDYYGSSPLGYWGQGTLVTVSS
VL: DIQMTQSPSSLSASVGDRVTITCSASPSISYMNWYQQKPGKAPKLLIYATSSLASGVPSRFSGSGSGTDFTLTISSLQPEDFATYYCHQRSSYPTFGQGTKLEIKR
notes: also called clone 11; mAb11
B2: AS20 hIgG4 S228P (antibody)
heavy: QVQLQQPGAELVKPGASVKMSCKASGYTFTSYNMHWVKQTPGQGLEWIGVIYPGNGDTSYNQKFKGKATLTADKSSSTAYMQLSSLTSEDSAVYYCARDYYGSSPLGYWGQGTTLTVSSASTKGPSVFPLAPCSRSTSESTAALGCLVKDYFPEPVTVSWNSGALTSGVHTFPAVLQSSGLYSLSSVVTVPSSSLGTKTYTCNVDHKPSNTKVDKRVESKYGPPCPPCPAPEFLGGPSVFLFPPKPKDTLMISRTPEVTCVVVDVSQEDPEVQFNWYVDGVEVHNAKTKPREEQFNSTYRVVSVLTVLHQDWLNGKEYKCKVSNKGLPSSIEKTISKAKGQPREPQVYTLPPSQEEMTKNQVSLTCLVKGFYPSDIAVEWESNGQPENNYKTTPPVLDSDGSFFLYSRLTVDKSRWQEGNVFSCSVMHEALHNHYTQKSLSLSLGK
light: QIVLTQSPAVMSASPGEKVTMTCSASSSISYMHWYQQKPGTSPKRWIYDTSKLASGVPARFSGSGSGTSYSLTISSMEAEDAATYYCHQRSSYPTFGGGTKLEIKRTVAAPSVFIFPPSDEQLKSGTASVVCLLNNFYPREAKVQWKVDNALQSGNSQESVTEQDSKDSTYSLSSTLTLSKADYEKHKVYACEVTHQGLSSPVTKSFNRGEC
notes: also called AS20 IgG4; AS20 (parental clone)
B3: Mouse BSSL, recombinant (enzyme)
chain: AKLGAVYTEGGFVEGVNKKLSLLGGDSVDIFKGIPFATAKTLENPQRHPGWQGTLKATNFKKRCLQATITQDNTYGQEDCLYLNIWVPQGRKQVSHNLPVMVWIYGGAFLMGSGQGANFLKNYLYDGEEIATRGNVIVVTFNYRVGPLGFLSTGDANLPGNFGLRDQHMAIAWVKRNIAAFGGDPDNITIFGESAGAASVSLQTLSPYNKGLIRRAISQSGMALSPWAIQKNPLFWAKTIAKKVGCPTEDTGKMAACLKITDPRALTLAYKLPVKKQEYPVVHYLAFIPVIDGDFIPDDPINLYNNTADIDYIAGINNMDGHLFATIDVPAVDKTKQTVTEEDFYRLVSGHTVAKGLKGAQATFDIYTESWAQDPSQENMKKTVVAFETDVLFLIPTEIALAQHKAHAKSAKTYSYLFSHPSRMPIYPKWMGADHADDLQYVFGKPFATPLGYRPQDRAVSKAMIAYWTNFARSGDPNMGNSPVPTHWYPYTLENGNYLDITKTITSASMKEHLREKFLKFWAVTFEVLPTVTGDQDTLTPPEDDSEVAPDPPSDDSQVVPVPPTDDSVEAQMPATIGF
notes: Bought (R&D Systems, Cat. no 5658-CE); also called mBSSL; murine BSSL

What was measured:
[1] = molecular target: T1, Biotinylated human BSSL (human, UniProt P19835 21-753, Biotinylated on glycosacarides, 30-40 biotin/BSSL); test: flow cytometry displacement assay; 1.0 ug antibody, 1 ug b-hBSSL
T1 construct: hBSSL biotinylated in house; also called b-hBSSL; human BSSL-biotin
T1 sequence: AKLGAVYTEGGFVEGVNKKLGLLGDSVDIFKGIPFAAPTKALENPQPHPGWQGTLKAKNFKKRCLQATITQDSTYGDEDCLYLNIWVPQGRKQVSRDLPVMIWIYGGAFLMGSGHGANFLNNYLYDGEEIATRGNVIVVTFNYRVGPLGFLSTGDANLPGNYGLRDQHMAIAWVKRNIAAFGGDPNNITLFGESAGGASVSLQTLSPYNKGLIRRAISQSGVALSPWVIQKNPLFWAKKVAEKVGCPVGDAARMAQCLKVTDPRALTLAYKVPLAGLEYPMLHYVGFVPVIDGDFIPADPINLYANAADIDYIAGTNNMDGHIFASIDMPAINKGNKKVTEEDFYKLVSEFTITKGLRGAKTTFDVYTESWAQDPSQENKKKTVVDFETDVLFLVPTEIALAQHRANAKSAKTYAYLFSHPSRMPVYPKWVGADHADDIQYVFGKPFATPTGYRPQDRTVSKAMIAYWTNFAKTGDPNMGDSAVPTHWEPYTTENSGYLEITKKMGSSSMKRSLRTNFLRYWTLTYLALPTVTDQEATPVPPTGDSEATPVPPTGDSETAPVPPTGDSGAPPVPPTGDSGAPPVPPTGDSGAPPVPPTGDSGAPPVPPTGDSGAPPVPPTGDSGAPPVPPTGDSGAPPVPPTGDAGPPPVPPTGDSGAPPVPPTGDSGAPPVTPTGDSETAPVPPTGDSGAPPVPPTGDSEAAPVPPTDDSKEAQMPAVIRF
Description: (§1) The 28 BSSL-specific hIgG4 antibodies and the five reference antibodies at different concentrations (ranging from 0.5 μg to 3.0 μg per reaction; see Table 10) were added to b-hBSSL (1 μg per reaction, see Table 2) in round-bottom polystyrene tubes, lx PBS (pH 7.4) was added to a final volume of 20 μl and the antibody/b-hBSSL mixtures were incubated for 30 min. at +4° C. to facilitate binding of antibodies to BSSL. Buffy coat (50 μl) was then added to each antibody/b-hBSSL mixture and incubation continued for another 30 min at +4° C. Thereafter, 2 ml of FACS lysing solution (BD Biosciences) was added and the cells were incubated for 10 min at room temperature in order to lyse erythrocytes and fix the white blood cells. The cells were then centrifuged for 5 min. at 200×g, the resulting pellets were washed by adding 2 ml of FACS buffer (1×PBS supplemented with 1% FCS and 0.1% NaN3) and centrifuged again. Finally, the supernatants were discarded and the cells were resuspended in the last drop of liquid, approximately 50 μl.
(§2) 5 μl of BV421-labelled anti-human CD14 (BD Biosciences) and 5 μl of BB515-labelled streptavidin (BD Biosciences) was added to each tube and incubated for 30 min, at +4° C., protected from light. Thereafter, cells were washed twice with FACS buffer, resuspended in 500 μl FACS buffer, and run on BD LSRII flow cytometer (BD Biosciences). Finally, data were analyzed using FlowJo software (BD Biosciences).

[2] = molecular target: T1, Biotinylated human BSSL; test: flow cytometry displacement assay; 1.5 ug antibody, 1 ug b-hBSSL
Method in brief: (§3)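 Antibody (0.5–3.0 μg per reaction) preincubated with 1 μg biotinylated human BSSL in PBS pH 7.4, 30 min at 4 °C, then with human buffy coat 30 min at 4 °C. After erythrocyte lysis/fixation, bound BSSL on CD14+ monocytes detected by labelled streptavidin via flow cytometry.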

[3] = molecular target: T1, Biotinylated human BSSL; test: flow cytometry displacement assay; 3.0 ug antibody, 1 ug b-hBSSL
Method in brief: as §3

[4] = molecular target: T2, Human BSSL (bile salt-stimulated lipase), native (human, UniProt P19835 21-753); test: cell-based or functional assay
T2 sequence: T1 sequence

[5] = molecular target: T1, Biotinylated human BSSL; test: flow cytometry displacement assay; 0.5 ug antibody, 1 ug b-hBSSL
Description: as §1, §2

[6] = molecular target: T2, Human BSSL (bile salt-stimulated …); test: SPR single cycle kinetics, captured by anti-Fab, Absolute Antibody batch
Description: (§4) Kinetic parameters of the hIgG4 S228P clones were determined by SPR using BIACORE® T200 (GE Healthcare). An anti-Fab antibody (GE #28958325) was immobilized on a CM5 S sensor chip by primary amine coupling using NHS-EDC chemistry. The hIgG4 antibodies were captured by the anti-Fab antibody, and subsequently, five different concentrations of hBSSL (1:5 dilutions, 0.08-50 nM) or mBSSL (1:2 dilutions, 50-800 nM) were injected over the surface. The sensor chip surface was regenerated with 10 mM glycine-HCl pH 2.1. For binding to human BSSL, single cycle kinetic data was fitted to a 1:1 binding model and kinetic parameters were retrieved using software BlAevaluation. For mouse BSSL, a steady state analysis was performed by plotting the response level at equilibrium against each concentration, and KD values were retrieved by the BlAevalution software.

[7] = molecular target: B3; test: SPR steady state, captured by anti-Fab, Absolute Antibody batch
Description: as §4

[8] = molecular target: B3; test: SPR steady state, hIgG4 S228P captured by anti-Fab
Method in brief: (§5)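 hIgG4 S228P captured on an immobilized anti-Fab surface; five BSSL concentrations injected, 1:5 dilutions from 50 nM (human) or from 500 nM (mouse). Human BSSL: single-cycle kinetics, 1:1 fit. Mouse BSSL: KD from steady-state equilibrium response versus concentration. Regeneration with 10 mM glycine-HCl pH 2.1.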

[9] = molecular target: T2, Human BSSL (bile salt-stimulated …); test: cell-based or functional assay; remark: listed apart in the source
[10] = molecular target: T2, Human BSSL (bile salt-stimulated …); test: SPR single cycle kinetics, hIgG4 S228P captured by anti-Fab
Method in brief: as §5

[11] = molecular target: T1, Biotinylated human BSSL; test: flow cytometry displacement assay; 2.0 ug antibody, 1 ug b-hBSSL
Description: as §1, §2

[12] = molecular target: AS20 scFv; test: HTRF competition against 5 nM b-hBSSL for 2.5 nM AS20 scFv
AS20 scFv, sequence (VH, as listed by the source): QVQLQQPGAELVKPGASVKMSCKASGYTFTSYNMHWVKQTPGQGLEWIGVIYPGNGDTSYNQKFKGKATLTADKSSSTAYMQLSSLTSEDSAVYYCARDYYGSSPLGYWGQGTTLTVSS
Description: In order to study the interaction between AS20 scFv and native mouse BSSL, a competition assay was developed. Detection of binding was enabled through donor molecule terbium-conjugated α-FLAG antibody (Cisbio #611FG2TL), which interacts with the C-terminal located FLAG-tag of the scFv, and acceptor molecule streptavidin-conjugated XL665 (Cisbio #610SAXL), which interacts with the biotin-moieties on human BSSL.
2.5 nM of AS20 scFv was pre-incubated for 2 hours with the mouse or human orthologue of BSSL, after which 5 nM b-hBSSL and the FRET donor and acceptor molecules were added. The mixture was finally incubated at room temperature for 16 hours and the binding signal (665 nm) and background/noise signal (615 nm) was measured using EnVision (PerkinElmer). The experimental output, Delta R, was calculated for each point using four replicates and two blanks.

B1
percentage reduction of b-hBSSL binding to CD14+ monocytes [1]: 9%
percentage reduction of b-hBSSL binding to CD14+ monocytes [2]: 60%
percentage reduction of b-hBSSL binding to CD14+ monocytes [3]: 68%
BSSL hydrolysis of cholesterol esters, relative value (no antibody = 100%); 0.19 ug antibody [4]: 96.2%
BSSL hydrolysis of cholesterol esters, relative value (no antibody = 100%); 0.38 ug antibody [4]: 98.2%
BSSL hydrolysis of cholesterol esters, relative value (no antibody = 100%); 0.75 ug antibody [4]: 92.2%
BSSL hydrolysis of cholesterol esters, relative value (no antibody = 100%); 1.5 ug antibody [4]: 95.2%
BSSL hydrolysis of cholesterol esters, relative value (no antibody = 100%); 3.0 ug antibody [4]: 93.7%
BSSL hydrolysis of cholesterol esters, relative value (no antibody = 100%); 6.0 ug antibody [4]: 90.2%
percentage reduction of b-hBSSL binding to CD14+ monocytes [5]: 1%
Kd [6]: 0.0006 µM
Kd [7]: 0.065 µM
Kd [8]: 0.024 µM
BSSL hydrolysis of triglycerides, relative value (no antibody = 100%); 0.19 ug antibody [9]: 109%
BSSL hydrolysis of triglycerides, relative value (no antibody = 100%); 0.38 ug antibody [9]: 114%
BSSL hydrolysis of triglycerides, relative value (no antibody = 100%); 0.75 ug antibody [9]: 125%
BSSL hydrolysis of triglycerides, relative value (no antibody = 100%); 1.5 ug antibody [9]: 112%
BSSL hydrolysis of triglycerides, relative value (no antibody = 100%); 3.0 ug antibody [9]: 120%
BSSL hydrolysis of triglycerides, relative value (no antibody = 100%); 6.0 ug antibody [9]: 113%
Kd [10]: 0.0007 µM

B2
percentage reduction of b-hBSSL binding to CD14+ monocytes [1]: 21%
percentage reduction of b-hBSSL binding to CD14+ monocytes [5]: 19%
Kd [6]: 0.0006 µM
Kd [7]: 0.223 µM
Kd [8]: 0.161 µM
percentage reduction of b-hBSSL binding to CD14+ monocytes [11]: 58%
Kd [10]: 0.0006 µM

B3
IC50 [12]: 0.15 to 0.2 µM
